In a protein production outcome set (Wang et al. 2014):

Experiment: label from the status in PepcDB records

Sequence	protein production
MLINKTKRAEQNLNNLPFLALQAEQIEFLGSSAEFKTQIIELIRNAKKRIYVTALYWQKDEAGQEILDEIYRVKQENPHLDVKVLIDWHRAQRNLLGAEKSATNADWYCEQRQTYQLPDDPNMFFGVPINTREVFGVLHVKGFVFDDTVLYSGASINNVYLHQFEKYRYDRYQKITHAELADSMVNFINDYLLDFSAVYPLDVTNRPRTKEIRGNIRAYRKDLAQNGEYSLKSAVKLPNVLSVSPLFGLGASGNELNQVIEDLFLQVQKKLVICTPYFNFPRTLQHKIATLLENGKRVEIIVGDKVANDFYIPPEQPFKMAGALPYLYESNLRRFCEKFETQIESGQLVVRLWRDGDNTYHLKGVWVDDRYILLTGNNLNPRAWRLDAENGLLIYDPQQQLLAQVEKEQNQIRQHTKVLKHYTELEELNQYPEPVQKLLKKFARIKADKLVKMIL	not failed
MHRTTRIKITELNPHLMCVLCGGYFIDATTIIECLHSFCKTCIVRYLETSKYCPICDVQVHKTRPLLNIRSDKTLQDIVYKLVPGLFKNEMKRRRDFYAAHPSADAANGSNEDRGEVADEDKRIITDDEIISLSIEFFDQNRLDRKVNKDKEKSKEEVNDKRYLRCPAAMTVMHLRKFLRSKMDIPNTFQIDVMYEEEPLKDYYTLMDIAYIYTWRRNGPLPLKYRVRPTCKRMKISHQRDGLTNAGELESDSGSDKANSPAGGVPSTSSCLPSPSTPVQSPHPQFPHISSTMNGTSNSPSGNHQSSFANRPRKSSVNGSSATSSG	failed
MEMYFKRMKDEWTGLVEQADPPIRAKAAEIAVAHAHYLSIEFYRIVRIDPHAEEFLSNEQVERQLKSAMERWIINVLSAQVDDVERLIQIQHTVAEVHARIGIPVEIVEMGFRVLKKILYPVIFSSDYSAAEKLQVYHFSINSIDIAMEVMTRAFTFSDSSASKEDENYRIFSLLENAEEEKERQIASILSWEIDIIYKILLDSDLGSSLPLSQADFGLWFNHKGRHYFSGIAEVGHISRLIQDFDGIFNQTMRNTRNLNNRSLRVKFLLQIRNTVSQIITLLRELFEEVSRHEVGMDVLTKLLNRRFLPTIFKREIAHANRTGTPLSVLIIDVDKFKEINDTWGHNTGDEILRKVSQAFYDNVRSSDYVFRYGGDEFIIVLTEASENETLRTAERIRSRVEKTKLKAANGEDIALSLSIGAAMFNGHPDYERLIQIADEALYIAKRRGRNRVELWKASL	failed
TKGEKKQESFLLEYVSANPTGPLHIGHARGAVFGDTLTRLARHLGYKFNTEYYVNDAGNQIYLLGLSILLSVKESILHENVEYPEQYYKGEYIVDLAKEAFEKFGKEFFSEENIPSLADWAKDKMLVLIKQNLEQAKIKIDSYVSERSYYDALNATLESLKEHKGIYEQEGKIWLASSQKGDEKDRVIIREDGRGTYLAADIVYHKDKMSRGYGKCINIWGADHHGYIPRMKAAMEFLGFDSNNLEIILAQMVSLLKDGEPYKMSKRAGNFILMSDVVDEIGSDALRYIFLSKKCDTHLEFDISDLQKEDSSNPVYYINYAHARIHQVFAKAGKKID	failed
MFKASHVLQGEDQTRSAAEFFPVISANYAVDEEAYLGELLQLADPGPDGIEAIRRNARALIETVRSRDNAVDTLDALLRQYSLDTQEGLMLMCLAEALLRVPDAATADALIRDKLSAADWQRHLGQSDNVLVNFAAWGLVMTGKVVNIDERTDGRAPSVISRLVQRSGEPVIRAAMNQAMKLMGKQFVLGRTISEALKNGRPCREQGYTYSFDMLGEAALTAADAEKYMADYRQAIDTVGAEPQVGPGPRPSISIKLSALHPRYEVAQRERVLSELFANVLELAVRARKLNVGITIDAEEADRLELSLELYEKLMRDPAIAGWGEFGLVIQAYSKRCLPVLVWLTLLGRELGARIPLRLVKGAYWDSEIKQCQVQGADGYPVYTRKEGTDTSYLACARYLLSEHTRGVIYPQFASHNAHTVTAILALADEARAAGGEERDFEFQRLHGMGDALYDTVIEKYRRNVRIYAPVGAHKDLLPYLVRRLLENGANSSFVHKLVDPRVPVETLIQHPVTQLRQFKTLANDRIPLPQAIFGAGRKNSQGINMNIQNQWNELELAYKPHLTRQWQAAPIVNGEKLSGPAHEVRCPYDLERLVGSVQYASAEQAGKALDVLQAAWPRWSATPVDERAGILERLADLLEAQRGELMALCTLEAGKSLQDGIDEIREAVDFCRYYAQQARQRLVREELRGPTGERNELFYEGRGIFACVSPWNFPLAIFLGQISAALVAGNTVLAKPAEQTSLIAARTVELMFEAGLPKDVIALLPGDGATLGGVFCRDARVAGVAFTGSTDTARIINRQLAEKPGAIATLIAETGGQNAMIVDSTALPEQVIKDAVQSAFTSAGQRCSALRVMYVQQDIAERVIELLKGAMAELKVGPTEVRVSDVGPVIDAEAKAGLEQHIAALKAAGKLIAETKVPGNLNGHFVAPVAFEISGIDELKKENFGPVLHVVRYAAQDLEKVVQAINATGFGLTMGVHSRNEETARRIEELARVGNLYINRNQIGAVVGVQPFGGHGLSGTGPKAGGPNYLLRFVSERTTSVNTTAVGGNA	failed
MNALPSSAEFSRAVGGDAVSREAVIRIEHLSKTFSDAAGPVLDDVSLTIRRGEIHGIIGRSGAGKSTLVRCINLLERPSAGRVIVSGREITSLRGRALRNARRDIGMIFQHFNVLSSHTVAGNVALPFKVAGLPRAEIARRIPPLLELVGLAHKADAYPSELSGGQKQRVGIARALALDPSVLLCDEATSALDPETTDQILALLRDINRKLGLTIVLITHEMHVVRDIATRVAVLDHGRVVEEGATFDVLAFPKSAVARSFLSGLVAHELPPPVAAQLLPAAVPGSDPVLRIVFTGTAAHDPIVADLVSVFGIQPNILHGRIDYVGDRPLGVLTLVAGGAGEKLPAVLSHLSSLGLVVEVIGHAVRSAVARRHSAARLEHHHHHH	failed
MPGELLGAHYGHCFGCGEEQSHGLHLAARAGQGVSITAEFTVQPAHQGAPGLAHGGVLATALDETLGSLNWLLRTIAVTGRLETDFVRPVPVGTVLYLEAEVTAVAGRKIYSTATGRIGGPEGPVAVRADALFVEVKVDHFTDNGRQEEIRAAMNDPDQLRRARAFEVNPLEHHHHHH	failed
IGIVNDMPLAVEALRRALAFEPQHQIVWVASNGAEAVTQCAADTPDVVLMDLLMPVMDGVEATRRIMAESPCAIVIVTVDIEQNVHRVFEAMGYGALDAVNTPALGIGNPQTAAAPLLRKIQNVGWLIGQRDNRGKVQVVPPKAGGARQRLVAIGASAGGPASLAVLLKQLPASFNAAVVLVQHVDEVFAAGMAEWLASESKLPVRLARDGEPPIPGQILLAGTNNHIRLLRNGSLVYTAEPRSFVYRPSIDVFFESVANYWRGDAVGVLLTGMGRDGAQGLKQMRERGFLTIAQDQASCAVYGMPKAAAAIDAAVQILSLEKIA	failed
MNSRLGTTASSITRSALPTTVVWDPAMTAYNFGPGHPMAPQRLELTARLAESLGLFNHNHVAVEAPTVATDVELFSVHSRDYVEAVRRVSADPSAPEEERGLGTEDDPAFAGMHEASARLAGGSLLAAETILSGQAVRAVNFSGGMHHAARERASGFCVYNDVALAIQKLLDGGVQRVVSIDVDAHHGDGTQSIFWNDPRVMTISLHETGLTLFPGTGFANETGGPDAPGTAVNVALPAFTGDAAWLRAFHAVVPQLVGAFQPEVIVSQHGCDSHRDDPLTHLNLSVDGQREAASAVAGLAARYCDNRWIATGGGGYDVTGVVPRAWSHLIGMVTQRPVPLKTPVPEAWRSYVKETYGVWAPESMSDDVDVWWRSWEVGYNPADEVDRTVIATRKEIFPLYGLDPWFD	failed
MVNPTISDDLFAMIAKKVADKSWLDLKPLIRSGTRGRDIVYRPDVLKDANIYSLCRVPDDFQVGGGHNPTGPQGEGRNRPFFKRCLLANNPTAVYNEAIRVLIHETDINGALKLMQRHAPVRADATIVCAIIFICAGYEWN	not failed
MEGITYMNLGTNDKLPKLNTHYSSLSKRLMASFFDNVIISALSYLLSIIIFIIMTIFSFRYLDEFINHIYLIYFSLHFLVAFFYYITMESSSFQGTLGKLIADIKVVKLNGDKVSIFQAFCRFFIANILLYPAYFFYALVLYNVSNQIIINHSCNPYKINSFYFYGLISSSLIYLIYKLVMLITILISNKKQGIHDILIKTLVIIR	failed
MSQFSTVWVLSDVLSPLPELMGGASSLGQSINVFTFNDEQSIAAFKLGATAVFQLEGKPDDRIMEDYAQSIVETIKSHSDAGLVLLPNTRRGKLFAARLGHRLAAVVSNDAQSLSTQNDTLVAKHMVYGGLAFSDETLTTPYCVVTASTGAFDVASETQATGTAQKVAWIAPSQSIICQSIQ	failed
MSSVLSFALAAWRRLRGYRDSLEVAGGLLAGNLFDTINMVVISMFSNYLVGQRGLLALYPQLSALTGGLLLSLSSRAISNHVLGGAGPEVYLTGLAVSAASGIFLTTVFSTATSIALGLEPVMMVPAALITLLGVLLVLTLLTWIIIVMLLRLGVSPDNVMPAILTSIIDMAVLILAIVAFSMVSRMDEGIYLVAVVTFSLALAFSAAAYDFRLTIDTTFSNFALQVVEMIAGVLLSATAPVLAATGLLPVLPPLNKLAGSVAGSMASAATTSVSLYGHYLDLPSMISTLFKITVGAIPSALYIGVIGYVLASVGEGSVGPQIVLASLLVSIVLSILGSLIAWLLVVVSIRAGLDPDAIAMPLATSLVDLLGVVSLSVVAWILLST	failed
MAENGESSGPPRPSRGPAAAQGSAAAPAEPKIIKVTVKTPKEKEEFAVPENSSVQQFKEAISKRFKSQTDQLVLIFAGKILKDQDTLIQHGIHDGLTVHLVIKSQNRPQGQSTQPSNAAGT	failed
MPSVSVNKQGIVKVNSALNMRSGPGSNYGVIGTLRNNDEVEIIKEVDGWYEIKFNGKSGYVSSQYIKVLEHHHHHH	not failed
MFVGVVVIVAYGNLGQRLAYTVRSDEVVATAGFVLVGFVAGVAGQVLGTRIQAAVGEGAAVVDLPLVLFLAASGAFVAALLRSVLFERDDPLVMLTVGLLLWLFFELDPSVTARRVVIALAVTVLLGYLSYALDTASLPGMLTGVLLSFLTIVLGGFGWFAMLITFFGLGGLSTKYRYDEKLDRGIAEENEGARGSGNVLANSIVALFAVVAAAASPSHIAVDPLLFFYAFAGAVAAAMTDTFSSEFGGLYDNPRLITTLRPVEPGTDGGVTWQGVAAGAAGAGIIAGIAALTQDISTVGSGVILLCGLVGMTVDSLLGATVEGSVVGNQGVNMLATLAAALTGAGVVLTAGLL	failed
MSAAQAVDDVPLEHAGNDVSDRMSLQRGVQLYMNYCVGCHSLKYLRYSRIAADLGLSEVQVMSTLNVTGAKFGDTIMTGMPVDTSEQWFGKIPPDLSLVARVRGSDWIYTYLRSFYVDSTRPLGWNNRLFVDVSMPNPLSHLQGVQRAEYGGASQAGADRLVTGLVLVQPGQQSPAEFDQTLRDIVNFLQYAAEP	failed
MSLNYKNYTVMLVDDEQPILNSLKRLIKRLGCNIITFTSPLDALEALKGTSVQLVISDMRMPEMGGEVFLEQVAKSYPDIERVVISGYADAQATIDAVNRGKISRFLLKPWEDEDVFKVVEKGLQLAFLREENLRLQEETEAKNKQEGHHHHHH	not failed
NNNSKINLFCVPSAGSSASIFSAWDKTSAENLKVIALEYPGHGRKIQQSLSHDPDFLAHQFSLEILAYGNTPYVLFGHSVGASLIWKIEEKLKLLHADHNLILKIVSARPSPLFQNLIHNYSHLTDEQMIKELRLYNNFPDEILNNASALNFFLPIIKNDFILSDNMLKKPIFKSSVPLMSVYGEADPYIKNHNIMESWSTYTNKWLGAHQFSGDHFYFLDTTILQKMLHLIQEKIY	failed
